Here are results for 4 molecules from patent US20260062487A1 (GRITSTONE BIO, published 2026).

One experiment deals with T1, CD3 on CD3+ Jurkat cells (human, UniProt P07766 23-207).
T1 construct: whole, on cells
Put plainly: flow cytometry, anti IgG PE, CD3+ Jurkat cells.

Experiment [1] has as its target T2, HLA-PEPTIDE target A*01:01_… (G2) on cells (human).
T2 construct: whole, on cells; also recovered from cell lysates in the IP-MS experiment; also called G2 pHLA; G2 target
Put plainly: flow cytometry, anti IgG PE, A375 9mer cells (1e6 copies per cell).
Procedure: A375 transduced with luciferase alone served as the negative control. […] Binding was determined by flow cytometery using an anti IgG-PE antibody for detection.

The target in experiment [2] is T2, HLA-PEPTIDE target A*01:01_… (G2) on …. Put plainly: flow cytometry, A375 cells engineered to express the G2 peptide.
Procedure: Tumor cells engineered to express target peptide were harvested, washed in PBS, and stained with eBioscience Fixable Viability Dye eFluor 450 for 15 minutes at room temperature. Following another wash in PBS+1-2% FBS, cells were resuspended with the indicated molecules at varying concentrations and incubated for 1 hour at 4° C. After another wash, PE-conjugated goat anti-human IgG secondary antibody (Jackson ImmunoResearch) was added at 1:100 to 1:200 for 30 minutes at 4° C. After washing in PBS+1-2% FBS, cells were resuspended in PBS+1-2% FBS and analyzed by flow cytometry. Flow cytometric analysis was performed on the Attune NxT Flow Cytometer (ThermoFisher) using the Attune NxT Software. Data was analyzed using FlowJo.
Experiment [3] concerns the target T3, biotinylated refolded G2-pHLA (A*01:01/b2m/…) (human, biotinylated at the C-terminal AviTag).
T3 construct: Soluble complex caught on streptavidin sensors or MSD plates; also called G2-peptide A*01:01/b2m complex; WT
Put plainly: BLI (Octet), biotinylated pHLA on streptavidin sensor, bivalent antibody as analyte (apparent affinity).
Source text: (§1) The biosensors were then dipped in assay buffer for a baseline. […] The biosensors were finally dipped into wells containing assay buffer to measure the dissociation rate for another 50 seconds. Referencing was completed by having a biosensor with no immobilized ligand dipped into analyte. Kinetic data was processed with Octet™ software using a 1:1 kinetic model with errors within 10%, X² below 3, and R² above 0.9.

Experiment [4] addresses T3, biotinylated refolded G2-pHLA …. As to the kind of experiment: BLI (ForteBio Octet HTX), biotinylated G2-pHLA captured on streptavidin SAX biosensor, antibody in solution, 1:1 kinetic model.
Source text: as §1
For experiment [5], the target named is biotinylated G5-pHLA (HLA-B*35:01 with …) (human). As to the kind of experiment: BLI (ForteBio Octet HTX), biotinylated G5-pHLA captured on streptavidin SAX biosensor, antibody in solution, 1:1 Fit.
Source text: as §1
Experiment [6] has the same target. As to the kind of experiment: BLI (ForteBio Octet HTX), biotinylated G5-pHLA captured on streptavidin SAX biosensor, antibody in solution, 1:2 Fit.
Experiment [7] deals with T3, biotinylated refolded G2-pHLA …. Put plainly: BLI (ForteBio Octet HTX), biotinylated G2-pHLA captured on streptavidin SAX biosensor, antibody in solution, 1:1 Fit.
Source text: as §1
Experiment [8] has the same target. Put plainly: BLI (ForteBio Octet HTX), biotinylated G2-pHLA captured on streptavidin SAX biosensor, antibody in solution, 1:2 Fit.

T1 sequence (P07766 23-207): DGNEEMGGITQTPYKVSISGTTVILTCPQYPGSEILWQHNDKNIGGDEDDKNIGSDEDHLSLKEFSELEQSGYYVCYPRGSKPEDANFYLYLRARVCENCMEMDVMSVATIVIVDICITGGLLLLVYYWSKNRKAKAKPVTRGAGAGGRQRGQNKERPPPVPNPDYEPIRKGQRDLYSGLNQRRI
Procedure for CD3 on CD3+ Jurkat cells: Increasing concentrations of the antibodies were incubated with CD3(+) and CD9(−) Jurkat cells. Binding was determined by flow cytometery using an anti IgG-PE antibody for detection.

B1: 41-E07 hSP34x (Format 41 31E07-CD3 bispecific antibody) (bispecific antibody)
chain: QVQLVQSGAEVKKPGASVKVSCKASGFTFTNYLIHWVRQAPGQGLEWMGWINPNSGGTNYAQRLQGRVTMTRDTSTSTVYMELSSLRSEDTAVYYCARDYGAGNDYWGQGTLVTVSSGGGGSGGGGSDIQMTQSPSSLSASVGDRVTITCRASQEIRRWLAWYQQKPGKAPKLLIYAASNLQSGVPSRFSGSGSGTDFTLTISSLQPEDFATYYCQQSYSTPYTFGQGTKLEIKGGGGSEPKSSDKTHTCPPCPAPEFEGGPSVFLFPPKPKDTLMISRTPEVTCVVVDVSHEDPEVKFNWYVDGVEVHNAKTKPREEQYNSTYRVVSVLTVLHQDWLNGKEYKCKVSNKALPASIEKTISKAKGQPREPQVYTLPPCREEMTKNQVSLWCLVKGFYPSDIAVEWESNGQPENNYKTTPPVLDSDGSFFLYSKLTVDKSRWQQGNVFSCSVMHEALHNHYTQKSLSLSPGK
heavy: QVQLVQSGAEVKKPGASVKVSCKASGFTFTNYLIHWVRQAPGQGLEWMGWINPNSGGTNYAQRLQGRVTMTRDTSTSTVYMELSSLRSEDTAVYYCARDYGAGNDYWGQGTLVTVSSGGGGSGGGGSDIQMTQSPSSLSASVGDRVTITCRASQEIRRWLAWYQQKPGKAPKLLIYAASNLQSGVPSRFSGSGSGTDFTLTISSLQPEDFATYYCQQSYSTPYTFGQGTKLEIKGGGGSGGGGSEVQLVESGGGLVQPGGSLRLSCAASGFTFSTYAMNWVRQAPGKGLEWVGRIRSKYNNYATYYADSVKGRFTISRDDSKNTLYLQMNSLRAEDTAVYYCVRHGNFGDSYVSWFAYWGQGTLVTVSSASTKGPSVFPLAPSSKSTSGGTAALGCLVKDYFPEPVTVSWNSGALTSGVHTFPAVLQSSGLYSLSSVVTVPSSSLGTQTYICNVNHKPSNTKVDKRVEPKSCDKTHTCPPCPAPEFEGGPSVFLFPPKPKDTLMISRTPEVTCVVVDVSHEDPEVKFNWYVDGVEVHNAKTKPREEQYNSTYRVVSVLTVLHQDWLNGKEYKCKVSNKALPASIEKTISKAKGQPREPQVCTLPPSREEMTKNQVSLSCAVKGFYPSDIAVEWESNGQPENNYKTTPPVLDSDGSFFLVSKLTVDKSRWQQGNVFSCSVMHEALHNRFTQKSLSLSPGK
light: QAVVTQEPSLTVSPGGTVTLTCGSSTGAVTTSNYANWVQQKPGKSPRGLIGGTNKRAPGVPARFSGSLLGGKAALTISGAQPEDEADYYCALWYSNHWVFGGGTKLTVLRTVAAPSVFIFPPSDEQLKSGTASVVCLLNNFYPREAKVQWKVDNALQSGNSQESVTEQDSKDSTYSLSSTLTLSKADYEKHKVYACEVTHQGLSSPVTKSFNRGEC
notes: also called 41-31E07-hSP34x
B1: the concentration giving a half-maximal response (EC50 (read off the curve)) with CD3 on CD3+ Jurkat cells was roughly 6 nM; in [1], roughly 2 nM.

B2: Format 4-G2(1H11) hOKT3a with engineered VH44/VL100 disulfide bond (DSB) (bispecific antibody, human IgG1, kappa, N297Q)
chain: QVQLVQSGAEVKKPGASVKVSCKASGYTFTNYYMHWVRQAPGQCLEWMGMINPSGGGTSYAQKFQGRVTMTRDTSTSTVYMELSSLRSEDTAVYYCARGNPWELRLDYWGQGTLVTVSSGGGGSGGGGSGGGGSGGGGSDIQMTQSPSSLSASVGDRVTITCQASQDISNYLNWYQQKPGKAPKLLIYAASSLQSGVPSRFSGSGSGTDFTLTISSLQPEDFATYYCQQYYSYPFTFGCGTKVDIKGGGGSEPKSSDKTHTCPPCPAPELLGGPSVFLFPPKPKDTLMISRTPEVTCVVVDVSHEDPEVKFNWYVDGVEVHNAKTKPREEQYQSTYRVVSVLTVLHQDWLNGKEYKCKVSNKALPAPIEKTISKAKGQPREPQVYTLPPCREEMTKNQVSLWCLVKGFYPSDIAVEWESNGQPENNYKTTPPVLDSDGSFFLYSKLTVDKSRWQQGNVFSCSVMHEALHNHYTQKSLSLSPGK
heavy: QVQLVQSGAEVKKPGASVKVSCKASGYTFTNYYMHWVRQAPGQCLEWMGMINPSGGGTSYAQKFQGRVTMTRDTSTSTVYMELSSLRSEDTAVYYCARGNPWELRLDYWGQGTLVTVSSGGGGSGGGGSGGGGSGGGGSDIQMTQSPSSLSASVGDRVTITCQASQDISNYLNWYQQKPGKAPKLLIYAASSLQSGVPSRFSGSGSGTDFTLTISSLQPEDFATYYCQQYYSYPFTFGCGTKVDIKGGGGSGGGGSQVQLVQSGAEVKKPGASVKVSCKASGYTFTRYTMHWVRQAPGQGLEWMGYINPSRGYTNYNQKFKDRVTLTTDKSSSTAYMELSSLRSEDTAVYYCARYYDDHYSLDYWGQGTLVTVSSASTKGPSVFPLAPSSKSTSGGTAALGCLVKDYFPEPVTVSWNSGALTSGVHTFPAVLQSSGLYSLSSVVTVPSSSLGTQTYICNVNHKPSNTKVDKRVEPKSCDKTHTCPPCPAPELLGGPSVFLFPPKPKDTLMISRTPEVTCVVVDVSHEDPEVKFNWYVDGVEVHNAKTKPREEQYQSTYRVVSVLTVLHQDWLNGKEYKCKVSNKALPAPIEKTISKAKGQPREPQVCTLPPSREEMTKNQVSLSCAVKGFYPSDIAVEWESNGQPENNYKTTPPVLDSDGSFFLVSKLTVDKSRWQQGNVFSCSVMHEALHNRFTQKSLSLSPGK
light: DIQMTQSPSSLSASVGDRVTITCSASSSVSYMNWYQQKPGKAPKRLIYDTSKLASGVPSRFSGSGSGTDFTLTISSLQPEDFATYYCQQWSSNPFTFGQGTKLEIKRTVAAPSVFIFPPSDEQLKSGTASVVCLLNNFYPREAKVQWKVDNALQSGNSQESVTEQDSKDSTYSLSSTLTLSKADYEKHKVYACEVTHQGLSSPVTKSFNRGEC
notes: also called 4-G2(1H11)-H44/L100 hOKT3a-TM; Format 4 G2(1H11)-hOKT3_DSBH44/L100
In experiment [2], B2 showed an EC50 of 1750 nM. The Kd in experiment [3] stood at 35.1 nM. In addition, the dissociation rate constant (koff) in experiment [4] turned out to be 0.025 s⁻¹.

B3: 41-G5(1C12) hOKT3a (Format 4-G5(1C12) hOKT3a with shortened 10 amino acid L1 and L2 linkers) (bispecific antibody, human IgG1, kappa, N297Q)
chain: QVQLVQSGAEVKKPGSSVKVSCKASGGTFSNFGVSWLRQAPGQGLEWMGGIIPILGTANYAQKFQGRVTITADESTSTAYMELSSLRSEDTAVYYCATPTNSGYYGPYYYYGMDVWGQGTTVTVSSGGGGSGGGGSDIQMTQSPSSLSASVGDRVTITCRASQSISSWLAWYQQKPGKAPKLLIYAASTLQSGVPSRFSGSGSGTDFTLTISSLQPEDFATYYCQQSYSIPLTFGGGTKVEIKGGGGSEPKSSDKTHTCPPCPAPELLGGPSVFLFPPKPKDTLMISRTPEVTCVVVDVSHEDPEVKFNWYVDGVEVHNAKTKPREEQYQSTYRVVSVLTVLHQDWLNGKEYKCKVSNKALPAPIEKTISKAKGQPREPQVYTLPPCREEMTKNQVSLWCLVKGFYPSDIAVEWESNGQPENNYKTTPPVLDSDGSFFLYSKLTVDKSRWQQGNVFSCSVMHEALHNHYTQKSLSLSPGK
heavy: QVQLVQSGAEVKKPGSSVKVSCKASGGTFSNFGVSWLRQAPGQGLEWMGGIIPILGTANYAQKFQGRVTITADESTSTAYMELSSLRSEDTAVYYCATPTNSGYYGPYYYYGMDVWGQGTTVTVSSGGGGSGGGGSDIQMTQSPSSLSASVGDRVTITCRASQSISSWLAWYQQKPGKAPKLLIYAASTLQSGVPSRFSGSGSGTDFTLTISSLQPEDFATYYCQQSYSIPLTFGGGTKVEIKGGGGSGGGGSQVQLVQSGAEVKKPGASVKVSCKASGYTFTRYTMHWVRQAPGQGLEWMGYINPSRGYTNYNQKFKDRVTLTTDKSSSTAYMELSSLRSEDTAVYYCARYYDDHYSLDYWGQGTLVTVSSASTKGPSVFPLAPSSKSTSGGTAALGCLVKDYFPEPVTVSWNSGALTSGVHTFPAVLQSSGLYSLSSVVTVPSSSLGTQTYICNVNHKPSNTKVDKRVEPKSCDKTHTCPPCPAPELLGGPSVFLFPPKPKDTLMISRTPEVTCVVVDVSHEDPEVKFNWYVDGVEVHNAKTKPREEQYQSTYRVVSVLTVLHQDWLNGKEYKCKVSNKALPAPIEKTISKAKGQPREPQVCTLPPSREEMTKNQVSLSCAVKGFYPSDIAVEWESNGQPENNYKTTPPVLDSDGSFFLVSKLTVDKSRWQQGNVFSCSVMHEALHNRFTQKSLSLSPGK
light: DIQMTQSPSSLSASVGDRVTITCSASSSVSYMNWYQQKPGKAPKRLIYDTSKLASGVPSRFSGSGSGTDFTLTISSLQPEDFATYYCQQWSSNPFTFGQGTKLEIKRTVAAPSVFIFPPSDEQLKSGTASVVCLLNNFYPREAKVQWKVDNALQSGNSQESVTEQDSKDSTYSLSSTLTLSKADYEKHKVYACEVTHQGLSSPVTKSFNRGEC
notes: also called 4-G5(1C12)_10AAL hOKT3a; G5(1C12)_10AAL
Turning to B3, in experiment [5], the Kd amounted to 2.2 nM, the off-rate (koff) stood at 0.00279 s⁻¹ and the kon was found to be 1.27e+06 M⁻¹ s⁻¹. Further, in experiment [6], the Kd is 16.1 nM, the off-rate (koff) came to 0.00652 s⁻¹ and the kon stood at 405000 M⁻¹ s⁻¹.

B4: Format 4-G2(1H11) hOKT3a with shortened 10 amino acid L1 and L2 linkers (bispecific antibody, human IgG1, kappa, N297Q)
chain: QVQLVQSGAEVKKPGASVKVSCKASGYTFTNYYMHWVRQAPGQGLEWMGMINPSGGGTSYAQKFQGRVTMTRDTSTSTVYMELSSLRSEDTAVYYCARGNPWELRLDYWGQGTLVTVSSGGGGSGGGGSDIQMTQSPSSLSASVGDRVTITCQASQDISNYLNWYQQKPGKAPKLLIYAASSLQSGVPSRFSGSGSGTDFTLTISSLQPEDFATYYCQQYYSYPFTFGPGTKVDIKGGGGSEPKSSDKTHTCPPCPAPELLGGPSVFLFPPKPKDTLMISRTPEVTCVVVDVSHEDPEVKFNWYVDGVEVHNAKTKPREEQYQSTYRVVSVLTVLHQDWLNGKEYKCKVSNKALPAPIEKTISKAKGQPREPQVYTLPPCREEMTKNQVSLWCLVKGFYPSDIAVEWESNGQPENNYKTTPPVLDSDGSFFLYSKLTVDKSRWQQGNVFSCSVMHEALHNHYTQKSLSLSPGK
heavy: QVQLVQSGAEVKKPGASVKVSCKASGYTFTNYYMHWVRQAPGQGLEWMGMINPSGGGTSYAQKFQGRVTMTRDTSTSTVYMELSSLRSEDTAVYYCARGNPWELRLDYWGQGTLVTVSSGGGGSGGGGSDIQMTQSPSSLSASVGDRVTITCQASQDISNYLNWYQQKPGKAPKLLIYAASSLQSGVPSRFSGSGSGTDFTLTISSLQPEDFATYYCQQYYSYPFTFGPGTKVDIKGGGGSGGGGSQVQLVQSGAEVKKPGASVKVSCKASGYTFTRYTMHWVRQAPGQGLEWMGYINPSRGYTNYNQKFKDRVTLTTDKSSSTAYMELSSLRSEDTAVYYCARYYDDHYSLDYWGQGTLVTVSSASTKGPSVFPLAPSSKSTSGGTAALGCLVKDYFPEPVTVSWNSGALTSGVHTFPAVLQSSGLYSLSSVVTVPSSSLGTQTYICNVNHKPSNTKVDKRVEPKSCDKTHTCPPCPAPELLGGPSVFLFPPKPKDTLMISRTPEVTCVVVDVSHEDPEVKFNWYVDGVEVHNAKTKPREEQYQSTYRVVSVLTVLHQDWLNGKEYKCKVSNKALPAPIEKTISKAKGQPREPQVCTLPPSREEMTKNQVSLSCAVKGFYPSDIAVEWESNGQPENNYKTTPPVLDSDGSFFLVSKLTVDKSRWQQGNVFSCSVMHEALHNRFTQKSLSLSPGK
light: DIQMTQSPSSLSASVGDRVTITCSASSSVSYMNWYQQKPGKAPKRLIYDTSKLASGVPSRFSGSGSGTDFTLTISSLQPEDFATYYCQQWSSNPFTFGQGTKLEIKRTVAAPSVFIFPPSDEQLKSGTASVVCLLNNFYPREAKVQWKVDNALQSGNSQESVTEQDSKDSTYSLSSTLTLSKADYEKHKVYACEVTHQGLSSPVTKSFNRGEC
notes: also called 4-G2(1H11)-10AAL hOKT3a; G2(1H11)_10AAL
In experiment [7], B4 yielded a Kd of 6.35 nM, a koff of 0.00608 s⁻¹ and a kon of 958000 M⁻¹ s⁻¹. In experiment [8], this molecule yielded a Kd of 301 nM, an off-rate constant (koff) of 0.0746 s⁻¹ and an association rate constant (kon) of 248000 M⁻¹ s⁻¹.
